± gives the standard deviation.

This data set is described as follows: protein stability index of a GFP-peptide fusion (GPS, HEK-293T) (PSI 1-6); higher = more stable. The following applies: c terminus: a fixed tail appended.
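Note: 24-mer peptide tiles fused after GFP, lentivirally expressed, FACS-sorted into six equal bins by GFP/DsRed ratio, decoded by Illumina sequencing, PSI is the read-weighted mean bin number.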

Sequence AMQASKATKITLSAIYKWITDNFC [FOXJ1] yielded a protein stability index (treatment: DMSO) of 2.28 ± 0.27 and a protein stability index (treatment: MLN4924 1 uM, 8 h) of 2.14 ± 0.23.

As for CRERWHNHLNPEVKKSCWTEEEDR [MYBL2], the protein stability index is, setting by setting: (treatment: DMSO) 4.2 ± 0.4; (treatment: MLN4924 1 uM, 8 h) 4.34 ± 0.25.

Turning to LSQLSSHDPLWRRHCKKYWLISEE [FBXO3], the protein stability index by setting is: (treatment: DMSO) 2.54 ± 0.069; (treatment: MLN4924 1 uM, 8 h) 2.67 ± 0.4.

Take QLKVVERTRTATMLCAASGNPDPE [PTPRD]: the protein stability index reads like this: (treatment: DMSO) 5.16 ± 0.26; (treatment: MLN4924 1 uM, 8 h) 4.86 ± 0.38.

Regarding MVQVACGASHVLALSTERELFAWG [NEK8], the protein stability index came out at 2.59 ± 1.1 (treatment: DMSO) and 2.32 ± 0.84 (treatment: MLN4924 1 uM, 8 h).

As to VNDHLLNFVRERTLDKRWRVRKEA [PDS5B], the protein stability index was 2.74 ± 0.44 (treatment: DMSO) and 3.08 ± 0.35 (treatment: MLN4924 1 uM, 8 h).

As to PGRSRMISQEEFARQLQLSDPQTV [LPCAT4], the protein stability index (treatment: DMSO) was 4.44 ± 0.22 and the protein stability index (treatment: MLN4924 1 uM, 8 h) came to 4.38 ± 0.12.

On to LKPSWFDFGFAILGFAYAKEDKIM [MIA2], for which the protein stability index (treatment: DMSO) was 3.06 ± 0.61 and the protein stability index (treatment: MLN4924 1 uM, 8 h) worked out at 2.34 ± 0.53.

For the sequence EEDLVLTCEDDEDEELGGSSRVPV [ZBTB22], the protein stability index is, setting by setting: (treatment: DMSO) 5.67 ± 0.24; (treatment: MLN4924 1 uM, 8 h) 5.6 ± 0.21.

With KEEAGAPGGGAGMAAGFPYALRAY [CEBPB], the protein stability index came out at 3.06 ± 0.13 (treatment: DMSO) and 3.31 ± 0.15 (treatment: MLN4924 1 uM, 8 h).

With SHKRKRSSGSFCYCHPDSETDEDE [GMCL1], the protein stability index by setting is: (treatment: DMSO) 5.21 ± 0.4; (treatment: MLN4924 1 uM, 8 h) 5.34 ± 0.2.

As for GYHQVPGSAAPGSPLAADPACLGQ [FOXJ1], the protein stability index (treatment: DMSO) amounted to 4.46 ± 0.22 and the protein stability index (treatment: MLN4924 1 uM, 8 h) was 4.29 ± 0.18.

AAARCVVLDCRPYLAFAASNVRGS [DUSP5]: the protein stability index is, setting by setting: (treatment: DMSO) 2.15 ± 0.55; (treatment: MLN4924 1 uM, 8 h) 2.2 ± 0.093.

For the sequence AVSCPYLPSNLLKKFRSSTSSSLG [KCNA4], the protein stability index reads like this: (treatment: DMSO) 2.54 ± 0.21; (treatment: MLN4924 1 uM, 8 h) 2.58 ± 0.2.

In the case of AQTPLHVAAETGHTSTARLLLHRG [RIPK4], the protein stability index turned out to be 3.89 ± 0.12 (treatment: DMSO) and 3.91 ± 0.38 (treatment: MLN4924 1 uM, 8 h).

The sequence KRRKSMSGASPKESTNPEKAHETL [CDC25A] had a protein stability index (treatment: DMSO) of 5.24 ± 0.25 and a protein stability index (treatment: MLN4924 1 uM, 8 h) of 5.03 ± 0.23.

On to ITRPSPRRSNSPDKFKRPTPPPSP [CCDC6], for which the protein stability index runs as follows: (treatment: DMSO) 5.18 ± 0.13; (treatment: MLN4924 1 uM, 8 h) 5.44 ± 0.081.

Turning to VSLHDRIYVIGGYDGRSRLSSVEC [KLHL12], the protein stability index runs as follows: (treatment: DMSO) 1.96 ± 0.16; (treatment: MLN4924 1 uM, 8 h) 2.19 ± 0.17.

With LCDVVLVVGAKKIYAHRVILSACS [KLHL20], the protein stability index is, setting by setting: (treatment: DMSO) 2.7 ± 0.29; (treatment: MLN4924 1 uM, 8 h) 2.74 ± 0.39.

In the case of KWWSDRLALFPLLPKVLQKYWCVT [ZBED1], the protein stability index is, setting by setting: (treatment: DMSO) 2.93 ± 1; (treatment: MLN4924 1 uM, 8 h) 2.73 ± 0.61.

As for FLVDMFNDEIEEVRLQSIHTMRKI [INTS4], the protein stability index was 2.33 ± 0.13 (treatment: DMSO) and 2.54 ± 0.34 (treatment: MLN4924 1 uM, 8 h).

Turning to RCLIWGRKPKVIECSYTSADGQRH [DHCR7], the protein stability index is 2.61 ± 0.33 (treatment: DMSO) and 2.77 ± 0.33 (treatment: MLN4924 1 uM, 8 h).

For the sequence NKVLVCPMKSAPVMLTLSDSKHVV [RBBP5], the protein stability index by setting is: (treatment: DMSO) 2.57 ± 0.25; (treatment: MLN4924 1 uM, 8 h) 2.75 ± 0.19.

On to YDIEVNTRRAQADLAYQLQVAKTK [FLOT1], for which the protein stability index is 4.35 ± 0.18 (treatment: DMSO) and 4.33 ± 0.19 (treatment: MLN4924 1 uM, 8 h).

Regarding FTTLTDRELEEYRREVERKQKGSE [ADD1], the protein stability index is, setting by setting: (treatment: DMSO) 4.53 ± 0.35; (treatment: MLN4924 1 uM, 8 h) 4.72 ± 0.4.

Turning to ATYCVRTFALYKNGSSEKREVRQF [PTPRD], the protein stability index (treatment: DMSO) came to 2.44 ± 0.4 and the protein stability index (treatment: MLN4924 1 uM, 8 h) stood at 2.35 ± 0.39.

Regarding EERNRFTETREEDVTDEHGEREPF [FAM9B], the protein stability index is, setting by setting: (treatment: DMSO) 5.62 ± 0.17; (treatment: MLN4924 1 uM, 8 h) 5.58 ± 0.12.

Take VAFVCAFSEALAEGAVKMGMPSSL [PYCR3]: the protein stability index is, setting by setting: (treatment: DMSO) 3.46 ± 0.41; (treatment: MLN4924 1 uM, 8 h) 2.42 ± 0.36.

Turning to SVREVTQIKCIELKSELGRKWHKA [P2RY14], the protein stability index was 2.83 ± 0.24 (treatment: DMSO) and 3.23 ± 0.29 (treatment: MLN4924 1 uM, 8 h).

Consider TQESTFQELCEGLLEESDGEGEPG [NOP53], for which the protein stability index came to 5.59 ± 0.22 (treatment: DMSO) and 5.51 ± 0.22 (treatment: MLN4924 1 uM, 8 h).

Take YGRSWESYSSCGDFHYCDREHVCR [RBMY1A1]: the protein stability index reads like this: (treatment: DMSO) 2.65 ± 0.72; (treatment: MLN4924 1 uM, 8 h) 2.66 ± 0.35.

For the sequence EAAGGESALAPSVFKQAKDKVSDG [MAP2], the protein stability index is, setting by setting: (treatment: DMSO) 5.46 ± 0.26; (treatment: MLN4924 1 uM, 8 h) 5.43 ± 0.32.

As for SPSTRGSPNRSLPSPGVLCGSARP [ATF4], the protein stability index reads like this: (treatment: DMSO) 4.49 ± 0.46; (treatment: MLN4924 1 uM, 8 h) 4.88 ± 0.18.

For the sequence PTTSHRLSRHDKAVQRFCLIGSLS [NETO1], the protein stability index stood at 2.28 ± 0.23 (treatment: DMSO) and 2.45 ± 0.48 (treatment: MLN4924 1 uM, 8 h).

As for GEPRKLLTQDWVQENYLEYRQVPG [MAGEA10], the protein stability index amounted to 3.62 ± 0.17 (treatment: DMSO) and 4.15 ± 0.3 (treatment: MLN4924 1 uM, 8 h).

Regarding EKTQDDLMKHQTNISELKRTFLET [EPB41L3], the protein stability index by setting is: (treatment: DMSO) 4.18 ± 0.68; (treatment: MLN4924 1 uM, 8 h) 4.2 ± 0.31.

The record behind these values is the supplement of paper PMC10567573.
